Here are results for 1 molecule from US20230124669A1.

Where a chain is given by its changes, count along the chain named.

The target of assay [1] is neonatal Fc receptor FcRn. In words: FcRn binding of bispecific antibody at acidic pH; method not stated.
In assay [2] the target is neonatal Fc receptor FcRn. Nature of the assay: FcRn binding of bispecific antibody; method not stated.

neonatal Fc receptor FcRn, sequence (P55899 24-297, chain 1 of 2): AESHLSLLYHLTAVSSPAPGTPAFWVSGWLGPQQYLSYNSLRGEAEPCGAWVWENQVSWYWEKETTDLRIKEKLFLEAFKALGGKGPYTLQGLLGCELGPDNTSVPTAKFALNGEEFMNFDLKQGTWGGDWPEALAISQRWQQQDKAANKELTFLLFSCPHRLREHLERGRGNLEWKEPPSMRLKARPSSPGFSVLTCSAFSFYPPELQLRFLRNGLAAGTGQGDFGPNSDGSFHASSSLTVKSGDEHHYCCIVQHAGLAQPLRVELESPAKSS
neonatal Fc receptor FcRn, sequence (P61769 21-119, chain 2 of 2, further chain): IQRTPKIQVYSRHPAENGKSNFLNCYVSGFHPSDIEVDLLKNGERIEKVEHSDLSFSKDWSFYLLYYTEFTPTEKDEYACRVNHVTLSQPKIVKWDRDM

B1: TY21489 (bispecific antibody, part only; not given: rest of both heavy chains, lights, not shown: a dimerising Fc or GST)
heavy, part 1: GQPREPQVYTLPPSRKKLTKNQVKLTCLVKGFYPSDIAVEWESNGQPENNYKTTPPVLDCDGSFFLYSKLTVDKSRWQQGNVFSCSVMHEALHNHYTQKSLSLSPGK
heavy, part 2: B1 heavy, part 1 with L11D, K16D, K17E, K24S, K30D, N50C, C60S, K99D
With B1, the FcRn binding at acidic pH/nM in assay [1] stood at 53.7 nM. For the same molecule, the pH dependent FcRn binding/% in assay [2] amounted to 0%.
